Measurements published in article PMC5436847.

Legend:
[1] = tested on: P34 Y174A (Trypanosoma brucei); assay: filter binding; settings: Filter binding: 10 mM Tris pH 7.4, 1 mM EDTA, 100 mM NaCl, 100 ug/ml BSA, 30 min, room temperature; 0.05 nM 5S rRNA, 0-300 nM protein; Bmax fixed at 100%
[2] = tested on: P34 N-terminus-RRM1-RRM2 (lacks C-terminus) (Trypanosoma brucei); assay: filter binding; settings: Filter binding: 10 mM Tris pH 7.4, 1 mM EDTA, 100 mM NaCl, 100 ug/ml BSA, 30 min, room temperature; 0.05 nM 5S rRNA, 0-300 nM protein; Bmax fixed at 100%
[3] = tested on: P34 full length (WT) (Trypanosoma brucei); assay: filter binding; settings: Filter binding: 10 mM Tris pH 7.4, 1 mM EDTA, 100 mM NaCl, 100 ug/ml BSA, 30 min, room temperature; 0.05 nM 5S rRNA, 0-300 nM protein; Bmax fixed at 100%
[4] = tested on: P34 F141A (Trypanosoma brucei); assay: filter binding; settings: Filter binding: 10 mM Tris pH 7.4, 1 mM EDTA, 100 mM NaCl, 100 ug/ml BSA, 30 min, room temperature; 0.05 nM 5S rRNA, 0-300 nM protein; Bmax fixed at 100%
[5] = tested on: P34 Y60A (Trypanosoma brucei); assay: filter binding; settings: Filter binding: 10 mM Tris pH 7.4, 1 mM EDTA, 100 mM NaCl, 100 ug/ml BSA, 30 min, room temperature; 0.05 nM 5S rRNA, 0-300 nM protein; Bmax fixed at 100%
[6] = tested on: P34 Y92A (Trypanosoma brucei); assay: filter binding; settings: Filter binding: 10 mM Tris pH 7.4, 1 mM EDTA, 100 mM NaCl, 100 ug/ml BSA, 30 min, room temperature; 0.05 nM 5S rRNA, 0-300 nM protein; Bmax fixed at 100%
[7] = tested on: P34 Y176A (Trypanosoma brucei); assay: filter binding; settings: Filter binding: 10 mM Tris pH 7.4, 1 mM EDTA, 100 mM NaCl, 100 ug/ml BSA, 30 min, room temperature; 0.05 nM 5S rRNA, 0-300 nM protein; Bmax fixed at 100%
[8] = tested on: P34 R91A, Y92A (Trypanosoma brucei); assay: filter binding; settings: Filter binding: 10 mM Tris pH 7.4, 1 mM EDTA, 100 mM NaCl, 100 ug/ml BSA, 30 min, room temperature; 0.05 nM 5S rRNA, 0-300 nM protein; Bmax fixed at 100%
[9] = tested on: P34 RRM1 (Trypanosoma brucei); assay: filter binding; settings: Filter binding: 10 mM Tris pH 7.4, 1 mM EDTA, 100 mM NaCl, 100 ug/ml BSA, 30 min, room temperature; 0.05 nM 5S rRNA, 0-300 nM protein; Bmax fixed at 100%
[10] = tested on: P34 N-terminus-RRM1 (lacks RRM2 and C-terminus) (Trypanosoma brucei); assay: filter binding; settings: Filter binding: 10 mM Tris pH 7.4, 1 mM EDTA, 100 mM NaCl, 100 ug/ml BSA, 30 min, room temperature; 0.05 nM 5S rRNA, 0-300 nM protein; Bmax fixed at 100%
[11] = tested on: P34 RRM2 (Trypanosoma brucei); assay: filter binding; settings: Filter binding: 10 mM Tris pH 7.4, 1 mM EDTA, 100 mM NaCl, 100 ug/ml BSA, 30 min, room temperature; 0.05 nM 5S rRNA, 0-300 nM protein; Bmax fixed at 100%
[12] = tested on: P34 RRM1-RRM2 (Trypanosoma brucei); assay: filter binding; settings: Filter binding: 10 mM Tris pH 7.4, 1 mM EDTA, 100 mM NaCl, 100 ug/ml BSA, 30 min, room temperature; 0.05 nM 5S rRNA, 0-300 nM protein; Bmax fixed at 100%
[13] = biological target: P34 RRM2 truncate protein (Trypanosoma brucei); assay: co-IP; immune capture: beads coated with anti-P34/P37 antibody incubated with the recombinant proteins (1 μg each) for 1 hr at 4°C, washed three times in PBS-T, eluted in SDS sample buffer; bound L5 (pellet) detected by western blot with anti-L5 antibody; pellet signal normalised to L5 + P34 FL, set to 1; at least three biological replicates
[14] = biological target: P34 R91A, Y92A mutated protein (Trypanosoma brucei); assay: as above
[15] = biological target: P34 N-terminus-RRM2 truncate (P34 lacking the C-terminus) (Trypanosoma brucei); assay: as above
[16] = biological target: P34 RRM1-RRM2 truncate (the RRM domains alone) (Trypanosoma brucei); assay: as above
[17] = biological target: P34 RRM1 truncate protein (Trypanosoma brucei); assay: as above
[18] = biological target: P34 R88-91K mutated protein (Trypanosoma brucei); assay: as above
[19] = biological target: P34 N-terminus-RRM1 truncate (P34 lacking both RRM2 and the C-terminus) (Trypanosoma brucei); assay: as above
[20] = biological target: P34 R88-91A mutated protein (Trypanosoma brucei); assay: as above
[21] = biological target: P34 R91A mutated protein (Trypanosoma brucei); assay: as above

5S rRNA
binding signal (fold affinity increase vs WT) [1]: 2
Kd [2]: 66 nM
Kd [3]: 30 nM
binding signal (fold affinity increase vs WT) [4]: 2
binding signal (fold affinity increase vs WT) [5]: 2
binding signal (fold affinity increase vs WT) [6]: 2
binding signal (fold affinity increase vs WT) [7]: 2
binding signal (fold affinity increase vs WT) [8]: 2
Kd [9]: 69 nM
Kd [10]: 103 nM
Kd [11]: 297 nM
Kd [12]: 67 nM

ribosomal protein L5 (natural protein)
amount of L5 bound relative to P34 full length (set as 1) (relative to P34 full length = 1) [13]: 0.54
amount of L5 bound relative to P34 WT (set as 1) (relative to P34 WT = 1) [14]: 1.5
amount of L5 bound relative to P34 full length (set as 1) (relative to P34 full length = 1) [15]: 1.1
amount of L5 bound relative to P34 full length (set as 1) (relative to P34 full length = 1) [16]: 0.64
amount of L5 bound relative to P34 full length (set as 1) (relative to P34 full length = 1) [17]: 0.65
amount of L5 bound relative to P34 WT (set as 1) (relative to P34 WT = 1) [18]: 0.75
amount of L5 bound relative to P34 full length (set as 1) (relative to P34 full length = 1) [19]: 0.93
amount of L5 bound relative to P34 WT (set as 1) (relative to P34 WT = 1) [20]: 0.45
amount of L5 bound relative to P34 WT (set as 1) (relative to P34 WT = 1) [21]: 1.3
